# Test results published in FireProtDB.
# “And” between values parts separate entries of the source, which are not always exact repeats. Identical values can stand only once.
# B1: Alpha-lactalbumin wild type, P00711 (protein)
# chain: MMSFVSLLLVGILFHATQAEQLTKCEVFRELKDLKGYGGVSLPEWVCTTFHTSGYDTQAIVQNNDSTEYGLFQINNKIWCKDDQNPHSSNICNISCDKFLDDDLTDDIMCVKKILDKVGINYWLAHKALCSEKLDQWLCEKL
# B2: Formate dehydrogenase wild type, O13437 (protein)
# chain: MKIVLVLYDAGKHAADEEKLYGCTENKLGIANWLKDQGHELITTSDKEGETSELDKHIPDADIIITTPFHPAYITKERLDKAKNLKLVVVAGVGSDHIDLDYINQTGKKISVLEVTGSNVVSVAEHVVMTMLVLVRNFVPAHEQIINHDWEVAAIAKDAYDIEGKTIATIGAGRIGYRVLERLLPFNPKELLYYDYQALPKEAEEKVGARRVENIEELVAQADIVTVNAPLHAGTKGLINKELLSKFKKGAWLVNTARGAICVAEDVAAALESGQLRGYGGDVWFPQPAPKDHPWRDMRNKYGAGNAMTPHYSGTTLDAQTRYAEGTKNILESFFTGKFDYRPQDIILLNGEYVTKAYGKHDKK
# B3: Bacteriorhodopsin wild type, P02945 (protein)
# chain: MLELLPTAVEGVSQAQITGRPEWIWLALGTALMGLGTLYFLVKGMGVSDPDAKKFYAITTLVPAIAFTMYLSMLLGYGLTMVPFGGEQNPIYWARYADWLFTTPLLLLDLALLVDADQGTILALVGADGIMIGTGLVGALTKVYSYRFVWWAISTAAMLYILYVLFFGFTSKAESMRPEVASTFKVLRNVTVVLWSAYPVVWLIGSEGAGIVPLNIETLLFMVLDVSAKVGFGLILLRSRAIFGEAEAPEPSAGDGAAATSD
# B4: FMN-dependent NADH:quinone oxidoreductase 1 wild type, Q88IY3 (protein)
# chain: MKLLHIDSSILGDNSASRQLSREVVEAWKAADPSVEVVYRDLAADAIAHFSAATLVAAGTPEDVRDAAQAFEAKLSAETLEEFLAADAVVIGAPMYNFTVPTQLKAWIDRVAVAGKTFRYTEAGPQGLCGNKKVVLVSTAGGLHAGQPTGAGHEDFLKVFLGFIGITDLEIVRAHGLAYGPEQRSQAIDAAQAQIASELFAAA
# B5: Tryptophan synthase alpha chain wild type, P00929 (protein)
# chain: MERYENLFAQLNDRREGAFVPFVTLGDPGIEQSLKIIDTLIDAGADALELGVPFSDPLADGPTIQNANLRAFAAGVTPAQCFEMLALIREKHPTIPIGLLMYANLVFNNGIDAFYARCEQVGVDSVLVADVPVEESAPFRQAALRHNIAPIFICPPNADDDLLRQVASYGRGYTYLLSRSGVTGAENRGALPLHHLIEKLKEYHAAPALQGFGISSPEQVSAAVRAGAAGAISGSAIVKIIEKNLASPKQMLAELRSFVSAMKAASRA
# B6: wild type, Q72LK2 (protein)
# chain: MEATLPVLDAKTAALKRRSIRRYRKDPVPEGLLREILEAALRAPSAWNLQPWRIVVVRDPATKRALREAAFGQAHVEEAPVVLVLYADLEDALAHLDEVIHPGVQGERREAQKQAIQRAFAAMGQEARKAWASGQSYILLGYLLLLLEAYGLGSVPMLGFDPERVKAILGLPSHAAIPALVALGYPAEEGYPSHRLPLERVVLWR
# Conditions: whole UniProt chain shown
# [1] = Halobacterium salinarum (strain ATCC 700922 / JCM 11081 / NRC-1), pH 7, Thermal, DSC, phosphate 0.1 M
# [2] = Salmonella typhimurium (strain LT2 / SGSC1412 / ATCC 700720), pH 9.01, Thermal, DSC, sodium tetraborate 1 mM
protein,measurement,setting,value
B1,Tm,"Bos taurus, pH 6, Thermal, DSC, Unknown",59 °C
B2,Tm,Candida boidinii,59 °C
B3,unfolding enthalpy (calorimetric),[1],50 kcal/mol and 86 kcal/mol and 104 kcal/mol
same,unfolding enthalpy (van 't Hoff),[1],71 kcal/mol and 125 kcal/mol and 155 kcal/mol
B4,Tm,"Pseudomonas putida (strain ATCC 47054 / DSM 6125 / CFBP 8728 / NCIMB 11950 / KT2440), Fluorescence spectroscopy",47 °C
B5,Tm,[2],46.2 °C
same,unfolding enthalpy (van 't Hoff),[2],3.68 kcal/mol
B6,Tm,Thermus thermophilus (strain ATCC BAA-163 / DSM 7039 / HB27),30 °C
